Reference: publication PMC10479434

Key:
α-synuclein (wild type) [1] = target: α-synuclein (wild type) (UniProt P37840)
α-synuclein (wild type) [2] = target: α-synuclein (wild type) (UniProt P37840); remark: listed apart in the source

Sequence of HtrA1ΔNTD (residues 156–480) (Q92743 156-480, stated change not applied): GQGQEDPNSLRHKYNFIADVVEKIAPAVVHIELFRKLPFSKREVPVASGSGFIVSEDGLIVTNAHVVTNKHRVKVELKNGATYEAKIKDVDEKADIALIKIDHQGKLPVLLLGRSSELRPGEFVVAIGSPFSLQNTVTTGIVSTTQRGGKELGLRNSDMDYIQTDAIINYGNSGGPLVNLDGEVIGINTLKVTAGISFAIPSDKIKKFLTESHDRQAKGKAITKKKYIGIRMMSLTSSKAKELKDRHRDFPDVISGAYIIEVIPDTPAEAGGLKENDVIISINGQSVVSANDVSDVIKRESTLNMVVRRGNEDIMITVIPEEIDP

Substance “HtrA1ΔNTD (residues 156–480) (from UniProt Q92743 156-480) (domain or fragment)” has a ThT fluorescence of α-syn (25 μM) fibrillized with HtrA1 (5 μM) for 48h, relative to the signal without HtrA1 (% of the ThT signal without HtrA1) (α-synuclein (wild type) [1]) of 20 and a sedimentation assay, α-syn (25 μM) with HtrA1 (5 μM), 24–72h: share of α-syn in the insoluble fraction (HtrA1 itself stays soluble with α-syn) (% of α-syn insoluble) (α-synuclein (wild type) [2]) of less than 10.
